{"source": "patent US20200239573A1", "about": "(CRESCENDO BIOLOGICS, published 2020)", "binders": {"B1": {"name": "Humabody® 1.92 (VHH)", "VHH": "EVQLVESGGGLVKPGGSLRLSCAASGFTFSDESMTWMRQAPGKGLEWVSYISSGGGVKFYADSVKGRFTISRDNAKNSLYLQMNSLRAEDTAVYYCAREAPLRLGESPHDAFDISGQGTMVTVSS", "notes": "human VH single domain antibody"}}, "key": {"[1]": {"target": "T1, human PD-1 expressed on cells (CHO human PD-1 cells) (human, UniProt Q15116 21-288)", "T1 sequence (Q15116 21-288)": "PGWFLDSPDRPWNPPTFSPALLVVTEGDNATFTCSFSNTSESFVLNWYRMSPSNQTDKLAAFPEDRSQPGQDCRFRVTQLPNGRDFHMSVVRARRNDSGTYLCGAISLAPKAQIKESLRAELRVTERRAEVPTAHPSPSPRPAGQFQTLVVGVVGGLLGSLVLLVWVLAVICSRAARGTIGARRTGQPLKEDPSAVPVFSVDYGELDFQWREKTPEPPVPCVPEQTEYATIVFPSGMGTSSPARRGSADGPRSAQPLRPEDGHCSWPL", "experiment": "cell-based or functional assay"}, "[2]": {"target": "T2, human PD-1 on primary human CD4+ T cells (human, UniProt Q15116 21-288)", "T2 sequence (Q15116 21-288)": "as above", "experiment": "flow cytometry, PHA-stimulated human CD4+ T cells, donor 1", "experimental": "(§1) Binding of monovalent single domain antibodies and multivalent binding agents to T cells was measured using flow cytometry. […] T-cells were stimulated with 2.5 μg/ml PHA for 2-4 days in RPMI media supplemented with 10% FBS, 2 mM Glutamine, 1× Pen/Strep. Cells were transferred into 96 well plates (75000 per well), blocked for 10 mins with PBS/1% BSA, then incubated with serially diluted VH in staining buffer (PBS/1% BSA) for 1 hour at 4° C. Cells were washed with staining buffer by centrifugation then incubated with 10 μg/ml biotinylated Anti His antibody for 40 mins at 4° C. Cells were washed again then stained with Streptavidin Alexa Fluor-488 (10 μg/ml) and 1:5000 diluted Live Dead near IR stain (Molecular Probes cat no. L10119) for 30 mins at 4° C. After further washing cells were fixed and fluorescence measured by flow cytometry."}, "mouse PD-1 protein": {"target": "T3, mouse PD-1 protein (mouse, UniProt Q02242 25-167)", "T3 construct": "Detected with anti human-Fc cryptate, so probably Fc tagged; also called mouse PD-1 (R&D Systems cat no. 1021-PD)", "T3 sequence (looked up)": "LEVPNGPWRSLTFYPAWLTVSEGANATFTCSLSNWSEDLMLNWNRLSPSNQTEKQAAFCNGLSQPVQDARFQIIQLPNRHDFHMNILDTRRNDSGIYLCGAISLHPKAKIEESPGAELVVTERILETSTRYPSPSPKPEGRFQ", "experiment": "HTRF binding, 2 nM mouse PD-1", "experimental": "e) Species Cross Reactivity Testing Purified […] were tested for their ability to bind to human PD-1 (R&D Systems cat no. 1086-PD), cynomolgus PD-1 (Acro Biosystems cat no. PD-1-05254) and mouse PD-1 (R&D Systems cat no. 1021-PD) in an HTRF Binding assay format. All reagents and serially diluted VH were prepared in assay buffer containing PBS, 0.1% BSA and 0.4M Potassium Fluoride. Samples or assay buffer (non-specific binding) were incubated with 2 nM human/cynomolgus or mouse PD-1, 1 nM Anti human-Fc Cryptate PAb (Cisbio cat. no. 61HFCKLB) and 30 nM anti His-D2 (CisBio cat no 61HISDLA) in black 384-shallow well assay plates for a minimum of 3 hours at room temperature. Time-resolved fluorescent emission at 620 nm and 665 nm was measured following excitation at 337 nm on the BMG PHERAstar plate reader. The HTRF ratio were calculated ((665 nm emission/620 nm emission)*10000) and the data corrected for (non-specific binding) to give the specific binding signal."}, "[3]": {"target": "T1, human PD-1 expressed on cells (CHO …)", "experiment": "FMAT epitope competition on CHO human PD-1 cells; competitor 1 nM 1.1-Strep", "experimental": "(§2) For the epitope competition assay reagents were prepared in FMAT assay buffer. […] Plates were incubated for a minimum of 1.5 hours at room temperature then fluorescence measured in the FL2 (502 nm-537 nm) and FL5 (677-800 nm) channels on the Mirrorball plate reader (TTP) following excitation at 488 nm and 640 nm. Data was expressed as a % of the total binding control (i.e. % control) after subtraction of the background signal determined from the non-specific binding control wells."}, "[4]": {"target": "T2, human PD-1 on primary human CD4+ T cells", "experiment": "flow cytometry, PHA-stimulated human CD4+ T cells, donor 2", "experimental": "as §1"}, "[5]": {"target": "T1, human PD-1 expressed on cells (CHO …)", "experiment": "FMAT 1.57 epitope competition on CHO human PD-1 cells; competitor 1.57-Strep; sample kept 7 days in mouse serum", "experimental": "as §2\n(§3) Serum stability of VH and multivalent VH constructs was assessed by measurement of their activity following incubation for 0, 1, 4 or 7 days in mouse serum (Sigma M5905)."}, "[6]": {"target": "T1, human PD-1 expressed on cells (CHO …)", "experiment": "FMAT 1.57 epitope competition on CHO human PD-1 cells; competitor 1.57-Strep; sample kept 7 days in human serum"}, "[7]": {"target": "T1, human PD-1 expressed on cells (CHO …)", "experiment": "FMAT 1.57 epitope competition on CHO human PD-1 cells; competitor 1.57-Strep; sample kept 1 day in human serum"}, "[8]": {"target": "T1, human PD-1 expressed on cells (CHO …)", "experiment": "FMAT inhibition; 200 pM PD-L2 on CHO human PD-1 cells", "experimental": "as §2, with “All” for “For the epitope competition assay”, “reagents and serially diluted VH” for “reagents”, “2” for “a minimum of 1.5”"}, "[9]": {"target": "T1, human PD-1 expressed on cells (CHO …)", "experiment": "FMAT 1.57 epitope competition on CHO human PD-1 cells; competitor 1.57-Strep; sample kept 0 days in mouse serum", "experimental": "as §2, §3"}, "[10]": {"target": "T1, human PD-1 expressed on cells (CHO …)", "experiment": "FMAT 1.57 epitope competition on CHO human PD-1 cells; competitor 1.57-Strep; sample kept 0 days in human serum; Day 0, Human column"}, "[11]": {"target": "T2, human PD-1 on primary human CD4+ T cells", "experiment": "flow cytometry, PHA-stimulated human CD4+ T cells, donor 3", "experimental": "as §1"}}, "data": [{"binder": "B1", "values": [{"measurement": "Reporter Assay EC50", "setting": "[1]", "result": 13, "unit": "nM"}, {"measurement": "EC50", "setting": "[2]", "result": 0.8, "unit": "nM"}, {"measurement": "binding result", "setting": "mouse PD-1 protein", "result": "no binding"}, {"measurement": "IC50", "setting": "[3]", "result": 0.79, "unit": "nM"}, {"measurement": "EC50", "setting": "[4]", "result": 1.1, "unit": "nM"}, {"measurement": "IC50", "setting": "[5]", "result": 5.2, "unit": "nM"}, {"measurement": "IC50", "setting": "[6]", "result": 5.4, "unit": "nM"}, {"measurement": "IC50", "setting": "[7]", "result": 4.9, "unit": "nM"}, {"measurement": "IC50", "setting": "[8]", "result": 4, "unit": "nM"}, {"measurement": "IC50", "setting": "[9]", "result": 4.4, "unit": "nM"}, {"measurement": "IC50", "setting": "[10]", "result": 5.7, "unit": "nM"}, {"measurement": "EC50", "setting": "[11]", "result": 1.2, "unit": "nM"}]}]}
